Assay results published in patent US20190185557 (published 2019).

T1: FcγRIIaH (human, UniProt P12318)
T1 chain: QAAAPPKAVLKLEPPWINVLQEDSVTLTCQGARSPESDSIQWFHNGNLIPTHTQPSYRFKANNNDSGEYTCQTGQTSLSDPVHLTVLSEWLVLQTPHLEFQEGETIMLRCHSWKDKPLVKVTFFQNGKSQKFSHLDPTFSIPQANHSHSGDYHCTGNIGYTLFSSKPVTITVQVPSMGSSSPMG

T2: FcγRIa (human, UniProt P12314)
T2 chain: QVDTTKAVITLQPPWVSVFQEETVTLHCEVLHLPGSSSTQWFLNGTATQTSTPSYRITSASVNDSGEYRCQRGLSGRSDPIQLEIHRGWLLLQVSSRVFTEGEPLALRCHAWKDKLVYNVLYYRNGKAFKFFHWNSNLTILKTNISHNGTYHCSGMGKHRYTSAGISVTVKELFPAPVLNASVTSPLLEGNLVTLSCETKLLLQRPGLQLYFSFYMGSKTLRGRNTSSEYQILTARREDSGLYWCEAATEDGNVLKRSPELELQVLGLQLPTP

B1: IL6R-BP507/IL6R-L (antibody)
chain 1: QVQLQESGPGLVKPSETLSLTCAVSGHSISHDHAWSWVRQPPGEGLEWIGFISYSGITNYNPSLQGRVTISRDNSKNTLYLQMNSLRAEDTAVYYCARSLARTTAMDYWGEGTLVTVSSASTKGPSVFPLAPSSKSTSGGTAALGCLVKDYFPEPVTVSWNSGALTSGVHTFPAVLQSSGLYSLSSVVTVPSSSLGTQTYICNVNHKPSNTKVDKKVEPKSCDKTHTCPPCPAPDLLGDDSVFLFPPKPKDTLMISRTPEVTCVVIDVAEEDGPVKFNWYVDGVEVHNAKTKPREEQYNSTYRVVSVLTVLHQDWLNGKEYKCKVSNKALPRPIEKTISKAKGQPREPQVYTLPPSRDELTKNQVSLTCLVKGFYPSDIAVEWESNGQPENNYKTTPPVLDSDGSFFLYSKLTVDKSRWQQGNVFSCSVMHEALHNHYTQESLSLSP
chain 2: not shown
B2: IL6R-BP445/IL6R-L (antibody)
chain 1: QVQLQESGPGLVKPSETLSLTCAVSGHSISHDHAWSWVRQPPGEGLEWIGFISYSGITNYNPSLQGRVTISRDNSKNTLYLQMNSLRAEDTAVYYCARSLARTTAMDYWGEGTLVTVSSASTKGPSVFPLAPSSKSTSGGTAALGCLVKDYFPEPVTVSWNSGALTSGVHTFPAVLQSSGLYSLSSVVTVPSSSLGTQTYICNVNHKPSNTKVDKKVEPKSCDKTHTCPPCPAPDLLGDDSVFLFPPKPKDTLMISRTPEVTCVVIDVAEEDGEVKFNWYVDGVEVHNAKTKPREEQYNSTYRVVSVLTVLHQDWLNGKEYKCKVSNKALPRPIEKTISKAKGQPREPQVYTLPPSRDELTKNQVSLTCLVKGFYPSDIAVEWESNGQPENNYKTTPPVLDSDGSFFLYSKLTVDKSRWQQGNVFSCSVMHEALHNHYTQESLSLSP
chain 2: not shown
B3: IL6R-BP506/IL6R-L (antibody)
chain 1: QVQLQESGPGLVKPSETLSLTCAVSGHSISHDHAWSWVRQPPGEGLEWIGFISYSGITNYNPSLQGRVTISRDNSKNTLYLQMNSLRAEDTAVYYCARSLARTTAMDYWGEGTLVTVSSASTKGPSVFPLAPSSKSTSGGTAALGCLVKDYFPEPVTVSWNSGALTSGVHTFPAVLQSSGLYSLSSVVTVPSSSLGTQTYICNVNHKPSNTKVDKKVEPKSCDKTHTCPPCPAPDLLGDDSVFLFPPKPKDTLMISRTPEVTCVVIDVAEEDGPVKFNWYVDGVEVHNAKTKPREEQDNSTYRVVSVLTVLHQDWLNGKEYKCKVSNKALPRPIEKTISKAKGQPREPQVYTLPPSRDELTKNQVSLTCLVKGFYPSDIAVEWESNGQPENNYKTTPPVLDSDGSFFLYSKLTVDKSRWQQGNVFSCSVMHEALHNHYTQESLSLSP
chain 2: not shown
B4: IL6R-BP480/IL6R-L (antibody)
chain 1: QVQLQESGPGLVKPSETLSLTCAVSGHSISHDHAWSWVRQPPGEGLEWIGFISYSGITNYNPSLQGRVTISRDNSKNTLYLQMNSLRAEDTAVYYCARSLARTTAMDYWGEGTLVTVSSASTKGPSVFPLAPSSKSTSGGTAALGCLVKDYFPEPVTVSWNSGALTSGVHTFPAVLQSSGLYSLSSVVTVPSSSLGTQTYICNVNHKPSNTKVDKKVEPKSCDKTHTCPPCPAPDLLGDDSVFLFPPKPKDTLMISRTPEVTCVVVDLSEDDGEVKFNWYVDGVEVHNAKTKPREEQYNSTYRVVSVLTVLHQDWLNGKEYKCKVSNKALPAPIEKTISKAKGQPREPQVYTLPPSRDELTKNQVSLTCLVKGFYPSDIAVEWESNGQPENNYKTTPPVLDSDGSFFLYSKLTVDKSRWQQGNVFSCSVMHEALHNHYTQESLSLSP
chain 2: not shown
B5: IL6R-BP490/IL6R-L (antibody)
chain 1: QVQLQESGPGLVKPSETLSLTCAVSGHSISHDHAWSWVRQPPGEGLEWIGFISYSGITNYNPSLQGRVTISRDNSKNTLYLQMNSLRAEDTAVYYCARSLARTTAMDYWGEGTLVTVSSASTKGPSVFPLAPSSKSTSGGTAALGCLVKDYFPEPVTVSWNSGALTSGVHTFPAVLQSSGLYSLSSVVTVPSSSLGTQTYICNVNHKPSNTKVDKKVEPKSCDKTHTCPPCPAPELLGDDSVFLFPPKPKDTLMISRTPEVTCVVIDVAEEDGEVKFNWYVDGVEVHNAKTKPREEQYNSTYRVVSVLTVLHQDWLNGKEYKCKVSNKALPRPIEKTISKAKGQPREPQVYTLPPSRDELTKNQVSLTCLVKGFYPSDIAVEWESNGQPENNYKTTPPVLDSDGSFFLYSKLTVDKSRWQQGNVFSCSVMHEALHNHYTQESLSLSP
chain 2: not shown

Assays:
FcγRIIaH = target: T1, FcγRIIaH; experiment: SPR
FcγRIa = target: T2, FcγRIa; experiment: SPR

| Binder | Kd (FcγRIIaH) | Kd (FcγRIa) |
| --- | --- | --- |
| B1 | 1800 nM |  |
| B2 | 1500 nM |  |
| B3 | 2500 nM |  |
| B4 |  | 13 nM |
| B5 | 2400 nM |  |
